T1: human CEACAM5 on cells (human, UniProt P06731 35-685)
T1 construct: tumour cell lines with endogenous CEACAM5, or B16F10 engineered to express hCEACAM5; also called CEACAM5 on MKN-45, HPAF-II, SK-CO-1, LoVo, BxPC-3, Kato-III, LS-174T, ZR-75-30; hCEACAM5-B16F10
T1 sequence: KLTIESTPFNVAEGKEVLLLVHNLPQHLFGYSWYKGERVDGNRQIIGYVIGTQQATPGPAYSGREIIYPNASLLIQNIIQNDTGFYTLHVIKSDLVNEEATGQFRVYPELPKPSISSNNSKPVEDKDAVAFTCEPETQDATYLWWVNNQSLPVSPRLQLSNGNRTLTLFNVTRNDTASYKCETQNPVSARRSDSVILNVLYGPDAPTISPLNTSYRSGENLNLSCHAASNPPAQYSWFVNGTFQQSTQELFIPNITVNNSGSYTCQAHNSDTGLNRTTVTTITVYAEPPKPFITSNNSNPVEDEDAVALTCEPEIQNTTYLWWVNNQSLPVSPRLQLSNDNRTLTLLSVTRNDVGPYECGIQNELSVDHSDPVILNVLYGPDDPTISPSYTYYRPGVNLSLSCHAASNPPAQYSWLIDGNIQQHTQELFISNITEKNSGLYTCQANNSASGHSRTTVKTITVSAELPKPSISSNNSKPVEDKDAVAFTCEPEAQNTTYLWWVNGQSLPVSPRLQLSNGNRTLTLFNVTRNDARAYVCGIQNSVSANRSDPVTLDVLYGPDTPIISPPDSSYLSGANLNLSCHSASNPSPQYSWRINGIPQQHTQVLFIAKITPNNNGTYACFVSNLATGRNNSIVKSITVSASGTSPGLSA

T2: Human CEACAM5 I80V V83A I112V I113T (human, UniProt P06731 35-685, limits assumed)
T2 chain: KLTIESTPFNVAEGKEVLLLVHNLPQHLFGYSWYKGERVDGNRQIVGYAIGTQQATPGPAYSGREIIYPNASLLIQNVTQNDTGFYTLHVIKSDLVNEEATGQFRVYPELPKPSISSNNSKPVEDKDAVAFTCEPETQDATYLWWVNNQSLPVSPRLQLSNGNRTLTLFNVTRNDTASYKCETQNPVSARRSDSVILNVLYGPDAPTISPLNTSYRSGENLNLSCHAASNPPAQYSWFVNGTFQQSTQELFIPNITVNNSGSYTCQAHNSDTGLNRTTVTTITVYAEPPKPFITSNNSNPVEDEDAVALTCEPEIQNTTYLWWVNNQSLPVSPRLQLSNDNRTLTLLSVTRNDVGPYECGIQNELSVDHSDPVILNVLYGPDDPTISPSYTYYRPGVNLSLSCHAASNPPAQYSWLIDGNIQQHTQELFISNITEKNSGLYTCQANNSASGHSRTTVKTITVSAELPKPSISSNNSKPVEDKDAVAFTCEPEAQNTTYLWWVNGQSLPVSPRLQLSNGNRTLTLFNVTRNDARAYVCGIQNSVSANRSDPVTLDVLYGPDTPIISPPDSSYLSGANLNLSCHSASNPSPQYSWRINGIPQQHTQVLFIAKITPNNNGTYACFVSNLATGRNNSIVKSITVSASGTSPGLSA

T3: Human CEACAM5 (E398) (human, UniProt P06731 35-685, limits assumed)
T3 construct: also called hCEACAM5
T3 sequence: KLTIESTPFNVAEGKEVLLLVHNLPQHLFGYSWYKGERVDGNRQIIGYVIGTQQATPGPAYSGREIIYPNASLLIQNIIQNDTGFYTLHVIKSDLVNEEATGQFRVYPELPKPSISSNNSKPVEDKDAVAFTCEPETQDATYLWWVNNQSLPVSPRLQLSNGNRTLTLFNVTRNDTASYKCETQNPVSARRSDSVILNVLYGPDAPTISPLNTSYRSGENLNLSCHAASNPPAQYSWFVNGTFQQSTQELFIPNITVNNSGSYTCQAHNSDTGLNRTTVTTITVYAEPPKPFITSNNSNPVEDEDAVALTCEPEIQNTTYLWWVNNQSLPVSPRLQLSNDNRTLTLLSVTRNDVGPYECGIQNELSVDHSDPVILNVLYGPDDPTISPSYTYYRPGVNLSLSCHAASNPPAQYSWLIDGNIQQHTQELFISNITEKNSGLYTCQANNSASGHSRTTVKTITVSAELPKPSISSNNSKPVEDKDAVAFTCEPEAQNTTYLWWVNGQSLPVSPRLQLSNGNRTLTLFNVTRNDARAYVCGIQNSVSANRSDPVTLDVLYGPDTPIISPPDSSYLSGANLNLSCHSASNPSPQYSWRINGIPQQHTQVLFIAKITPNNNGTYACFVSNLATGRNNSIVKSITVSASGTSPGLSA


Columns and labels:
human CEACAM5 on cells = target: T1, human CEACAM5 on cells; test: flow cytometry, HPAF-II cells
Protocol: MKN-45 and HPAF-II human cancer cell lines were diluted into FACS buffer and 100,000 cells of each cell type were seeded per well in duplicate into 96-well plates for FACS staining. The cells were washed with PBS, incubated in a 1:2000 dilution of live/dead dye in PBS for 15 minutes, and then washed with FACS buffer. AB0264, AB0411, AB0466, and AB0621 were diluted into FACS buffer, and 50 μl of each diluted TriNKET was added to the cells. After incubation on ice for 30-120 minutes, the cells were washed with FACS buffer. Anti-human IgG-Fc secondary antibody was diluted into FACS buffer, and 50 μl was added per well for detection of the bound TriNKETs. The cells were incubated for 30-60 minutes on ice and then washed with FACS buffer. 50 μl of fixation buffer was added to each well and the cells were incubated for 10 minutes at room temperature. The cells were washed with FACS buffer and resuspended in FACS buffer for analysis with ThermoFisher Attune NxT, BD FACS Celesta SN #H66034400085, or BD FACS Celesta SN #H66034400160.
Cells of interest were identified using FSC vs. SSC plot and an appropriately shaped gate was drawn around the cells. Within the gated cells, doublet cells were removed by viewing FSC-H vs. FSC-A plot. Within the single cell population, live cells were gated. Within the live gate, the median fluorescence intensity (MFI) of each sample and the secondary-only control was calculated. Fold-over-background (FOB) was calculated as the ratio of test article MFI over secondary-only background MFI. Data were fit to a four-parameter non-linear regression curve using GraphPad Prism 7.0.

[1] = target: T2, Human CEACAM5 I80V V83A I112V I113T; test: SPR, 37C, pH 7.4
Human CEACAM5 (E398) = target: T3, Human CEACAM5 (E398); test: SPR, 37C, pH 7.4

Row | EC50 (human CEACAM5 on cells) [nM] | Max FOB (human CEACAM5 on cells) [fold over background] | Kd [1] [nM] | kon [1] [M⁻¹ s⁻¹] | Kd (Human CEACAM5 (E398)) [nM] | kon (Human CEACAM5 (E398)) [M⁻¹ s⁻¹] | Binder
1 | 7.61 | 49 | 61 | 590000 | 7.2 | 190000 | AB0466 F3' CEACAM5 TriNKET (bispecific antibody, human IgG1, kappa) not shown heavy: EVQLVESGGGLVKPGGSLRLSCAASGFTFSSYSMNWVRQAPGKGLEWVSSISSSSSYIYYADSVKGRFTISRDNAKNSLYLQMNSLRAEDTAVYYCARGAPIGAAAGWFDPWGQGTLVTVSSASTKGPSVFPLAPSSKSTSGGTAALGCLVKDYFPEPVTVSWNSGALTSGVHTFPAVLQSSGLYSLSSVVTVPSSSLGTQTYICNVNHKPSNTKVDKKVEPKSCDKTHTCPPCPAPELLGGPSVFLFPPKPKDTLMISRTPEVTCVVVDVSHEDPEVKFNWYVDGVEVHNAKTKPREEQYNSTYRVVSVLTVLHQDWLNGKEYKCKVSNKALPAPIEKTISKAKGQPREPQVCTLPPSRDELTENQVSLTCLVKGFYPSDIAVEWESNGQPENNYKTTPPVLDSDGSFFLYSWLTVDKSRWQQGNVFSCSVMHEALHNHYTQKSLSLSPG light: DIQMTQSPSSVSASVGDRVTITCRASQGISSWLAWYQQKPGKAPKLLIYAASSLQSGVPSRFSGSGSGTDFTLTISSLQPEDFATYYCQQGVSFPRTFGGGTKVEIKRTVAAPSVFIFPPSDEQLKSGTASVVCLLNNFYPREAKVQWKVDNALQSGNSQESVTEQDSKDSTYSLSSTLTLSKADYEKHKVYACEVTHQGLSSPVTKSFNRGEC
2 | 18.1 | 24.9 | 22 | 64000 | 17 | 100000 | AB0621 F3' CEACAM5 TriNKET (bispecific antibody, human IgG1, kappa) DIVMTQSPDSLAVSLGERATINCKSSHSLLYGNFQNNYLAWYQQKPGQPPKLLIYWASTRESGVPDRFSGSGSGTDFTLTISSLQAEDVAVYYCQQYYSYPYTFGCGTKLEIKGGGGSGGGGSGGGGSGGGGSQVQLVQSGAEVKKPGASVKVSCKASGYTFTAYTIHWVRQAPGQCLEWMGYINPSSGYTEYNQKFKDRTTLTADTSISTAYMELSRLRSDDTAVYYCTREGGLLWFDYWGQGTLVTVSSGSDKTHTCPPCPAPELLGGPSVFLFPPKPKDTLMISRTPEVTCVVVDVSHEDPEVKFNWYVDGVEVHNAKTKPREEQYNSTYRVVSVLTVLHQDWLNGKEYKCKVSNKALPAPIEKTISKAKGQPREPRVYTLPPCRDELTKNQVSLTCLVKGFYPSDIAVEWESNGQPENNYKTTPPVLVSDGSFTLYSKLTVDKSRWQQGNVFSCSVMHEALHNHYTQKSLSLSPG heavy: EVQLVESGGGLVKPGGSLRLSCAASGFTFSSYSMNWVRQAPGKGLEWVSSISSSSSYIYYADSVKGRFTISRDNAKNSLYLQMNSLRAEDTAVYYCARGAPIGAAAGWFDPWGQGTLVTVSSASTKGPSVFPLAPSSKSTSGGTAALGCLVKDYFPEPVTVSWNSGALTSGVHTFPAVLQSSGLYSLSSVVTVPSSSLGTQTYICNVNHKPSNTKVDKKVEPKSCDKTHTCPPCPAPELLGGPSVFLFPPKPKDTLMISRTPEVTCVVVDVSHEDPEVKFNWYVDGVEVHNAKTKPREEQYNSTYRVVSVLTVLHQDWLNGKEYKCKVSNKALPAPIEKTISKAKGQPREPQVCTLPPSRDELTENQVSLTCLVKGFYPSDIAVEWESNGQPENNYKTTPPVLDSDGSFFLYSWLTVDKSRWQQGNVFSCSVMHEALHNHYTQKSLSLSPG light: DIQMTQSPSSVSASVGDRVTITCRASQGISSWLAWYQQKPGKAPKLLIYAASSLQSGVPSRFSGSGSGTDFTLTISSLQPEDFATYYCQQGVSFPRTFGGGTKVEIKRTVAAPSVFIFPPSDEQLKSGTASVVCLLNNFYPREAKVQWKVDNALQSGNSQESVTEQDSKDSTYSLSSTLTLSKADYEKHKVYACEVTHQGLSSPVTKSFNRGEC
3 | 20.3 | 27.9 | – | – | – | – | AB0264 F3' CEACAM5 TriNKET (bispecific antibody, human IgG1, kappa) DIVMTQSPDSLAVSLGERATINCKSSHSLLYGNFQNNYLAWYQQKPGQPPKLLIYWASTRESGVPDRFSGSGSGTDFTLTISSLQAEDVAVYYCQQYYSYPYTFGCGTKLEIKGGGGSGGGGSGGGGSGGGGSQVQLVQSGAEVKKPGASVKVSCKASGYTFTAYTIHWVRQAPGQCLEWMGYINPSSGYTEYNQKFKDRTTLTADTSIPTAYMELSRLRSDDTAVYYCTREGGLLWFDYWGQGTLVTVSSGSDKTHTCPPCPAPELLGGPSVFLFPPKPKDTLMISRTPEVTCVVVDVSHEDPEVKFNWYVDGVEVHNAKTKPREEQYNSTYRVVSVLTVLHQDWLNGKEYKCKVSNKALPAPIEKTISKAKGQPREPRVYTLPPCRDELTKNQVSLTCLVKGFYPSDIAVEWESNGQPENNYKTTPPVLVSDGSFTLYSKLTVDKSRWQQGNVFSCSVMHEALHNHYTQKSLSLSPG heavy: EVQLVESGGGLVKPGGSLRLSCAASGFTFSSYSMNWVRQAPGKGLEWVSSISSSSSYIYYADSVKGRFTISRDNAKNSLYLQMNSLRAEDTAVYYCARGAPIGAAAGWFDPWGQGTLVTVSSASTKGPSVFPLAPSSKSTSGGTAALGCLVKDYFPEPVTVSWNSGALTSGVHTFPAVLQSSGLYSLSSVVTVPSSSLGTQTYICNVNHKPSNTKVDKKVEPKSCDKTHTCPPCPAPELLGGPSVFLFPPKPKDTLMISRTPEVTCVVVDVSHEDPEVKFNWYVDGVEVHNAKTKPREEQYNSTYRVVSVLTVLHQDWLNGKEYKCKVSNKALPAPIEKTISKAKGQPREPQVCTLPPSRDELTENQVSLTCLVKGFYPSDIAVEWESNGQPENNYKTTPPVLDSDGSFFLYSWLTVDKSRWQQGNVFSCSVMHEALHNHYTQKSLSLSPG light: DIQMTQSPSSVSASVGDRVTITCRASQGISSWLAWYQQKPGKAPKLLIYAASSLQSGVPSRFSGSGSGTDFTLTISSLQPEDFATYYCQQGVSFPRTFGGGTKVEIKRTVAAPSVFIFPPSDEQLKSGTASVVCLLNNFYPREAKVQWKVDNALQSGNSQESVTEQDSKDSTYSLSSTLTLSKADYEKHKVYACEVTHQGLSSPVTKSFNRGEC
